# Measurements: FireProtDB (doi:10.1016/j.jmb.2004.09.091)
# Conditions: Dictyostelium discoideum, pH 6.7, Urea, Fluorescence, KH2PO4/K2HPO4 50 mM, reversible: Yes
# Hisactophilin-1 wild type, sequence (P13231 whole entry, looked up): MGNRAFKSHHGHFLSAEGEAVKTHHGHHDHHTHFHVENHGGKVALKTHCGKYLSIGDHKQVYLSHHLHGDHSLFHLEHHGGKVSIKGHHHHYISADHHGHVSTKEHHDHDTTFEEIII
substance,measurement,setting,value
Hisactophilin-1 wild type (from UniProt P13231),denaturant m value,5 °C,2.66 kcal/mol/M
same,denaturant midpoint (higher = more stable),5 °C,2.14 M
same,unfolding free energy,5 °C,5.37 kcal/mol
same,denaturant m value,15 °C,2.7 kcal/mol/M
same,denaturant midpoint (higher = more stable),15 °C,2.58 M
same,unfolding free energy,15 °C,6.5 kcal/mol
same,denaturant m value,20 °C,2.53 kcal/mol/M
same,denaturant midpoint (higher = more stable),20 °C,2.89 M
same,unfolding free energy,20 °C,6.71 kcal/mol
same,denaturant m value,25 °C,2.51 kcal/mol/M
same,denaturant midpoint (higher = more stable),25 °C,2.91 M
same,unfolding free energy,25 °C,6.68 kcal/mol
same,denaturant m value,30 °C,2.28 kcal/mol/M
same,denaturant midpoint (higher = more stable),30 °C,2.95 M
same,unfolding free energy,30 °C,6.08 kcal/mol
same,denaturant m value,35 °C,2.44 kcal/mol/M
same,denaturant midpoint (higher = more stable),35 °C,2.87 M
same,unfolding free energy,35 °C,6.43 kcal/mol
same,denaturant m value,40 °C,2.34 kcal/mol/M
same,denaturant midpoint (higher = more stable),40 °C,2.63 M
same,unfolding free energy,40 °C,5.67 kcal/mol
same,denaturant m value,45 °C,2.24 kcal/mol/M
same,denaturant midpoint (higher = more stable),45 °C,2.45 M
same,unfolding free energy,45 °C,5.05 kcal/mol
